Experiment [1] addresses SARS-CoV-2 Spike* (mutant, pre-fusion stabilised Spike protein ectodomain) (SARS-CoV-2, Wuhan-Hu-1). The experiment in a line: SPR. For orientation: SPR reads the build-up and loss of mass on a sensor chip optically.
For experiment [2] the target is unchanged.

In experiment [1], “Nb6-tri (trivalent Nb6 with two 20 amino acid linkers) (VHH)” showed a kd2 (slow phase of dissociation) of less than 1e-06 s⁻¹. Moreover, the half-inhibitory concentration (IC50) (commonly the concentration that gives 50% inhibition) in experiment [2] amounted to 1.5 nM.

For mNb6-tri (trivalent mNb6) (VHH), the Kd (commonly the equilibrium constant for the complex coming apart) in experiment [1] was less than 0.001 nM. Also, in experiment [2], the concentration for half-maximal inhibition (IC50) is 0.4 nM.

(Values after paper PMC7430568.)
